Legend:
[1] = target: T1, hOrai1-mOrai1 ECL2 chimeric protein (human/mouse chimera, UniProt Q96D31 1-301); test: FACS, 293EBNA; design: concentration or dose not given beside the values
T1 construct: human Orai1 with mouse ECL2; also called Ch
Description: (§1) FIG. 16A-D illustrates the results of FACS analysis showing binding to the indicated mOrai1-hOrai1 ECL2 chimeric mutants expressed on the surface of HEK-293-EBNA cells. Transfected cells were stained first with recombinant monoclonal antibodies then counter-stained with a secondary phycoerythrin-labeled goat (“Gt”) anti-human (“Hu”) IgG F(ab′)₂ antibody fragment and visualized using FACS. In FIG. 16B and FIG. 16D, The values of Relative Fluorescence Intensity as Percent of Control (RFI-POC) are calculated from the relative fluorescence intensity geometric mean (Geo Mean). The geometric mean is an average calculated by multiplying a series of numbers and taking the nth root where n is the number of numbers in the series. It is a statistical average of a set of transformed numbers often used to represent a central tendency in a highly variable data set that minimizes the effects of extreme values.
(§2) Table 11A and Table 11B feature a schematic representation of the POC data from FIG. 16B and FIG. 16D, respectively, where the binding results are recorded as (+++) denoting binding POC from 40% to 100%, (++) for POC of 5% to less than 40%, (+) for POC from 1% to less than 5% and (−) as lack of binding with POC less than 1%.

[2] = target: T2, mOrai1-hOrai1 ECL2 (…) protein (human/mouse chimera, UniProt Q8BWG9 1-304 (mouse entry)); test: FACS, 293EBNA; design: concentration or dose not given beside the values
T2 construct: also called Ch
Description: as §1, §2
T2 sequence (Q8BWG9 other isoform, or with tags, fused parts or gaps): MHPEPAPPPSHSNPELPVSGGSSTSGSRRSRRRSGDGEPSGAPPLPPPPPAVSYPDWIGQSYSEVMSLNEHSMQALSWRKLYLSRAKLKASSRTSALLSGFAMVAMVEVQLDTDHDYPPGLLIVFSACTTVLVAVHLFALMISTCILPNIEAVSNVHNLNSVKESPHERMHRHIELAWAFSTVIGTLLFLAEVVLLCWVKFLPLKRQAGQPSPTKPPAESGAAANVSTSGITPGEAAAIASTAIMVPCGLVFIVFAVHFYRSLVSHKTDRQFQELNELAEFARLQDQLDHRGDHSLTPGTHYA

[3] = target: T3, mOrai1-hOrai1 ECL2 (SPTKPPAE) protein (human/mouse chimera, UniProt Q8BWG9 1-304 (mouse entry)); test: FACS, 293EBNA; design: concentration or dose not given beside the values
T3 construct: also called Ch
T3 sequence (Q8BWG9 other isoform, or with tags, fused parts or gaps): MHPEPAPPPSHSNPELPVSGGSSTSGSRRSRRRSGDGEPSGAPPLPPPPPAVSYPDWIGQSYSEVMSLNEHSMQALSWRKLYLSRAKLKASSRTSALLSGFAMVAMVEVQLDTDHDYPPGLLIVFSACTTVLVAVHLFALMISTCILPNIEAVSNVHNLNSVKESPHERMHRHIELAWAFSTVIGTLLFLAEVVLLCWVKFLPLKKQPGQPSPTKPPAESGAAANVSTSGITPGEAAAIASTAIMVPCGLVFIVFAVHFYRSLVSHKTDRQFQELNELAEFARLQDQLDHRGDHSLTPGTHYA
Description: as §1, §2

[4] = target: T4, mOrai1-hOrai1 ECL2 (KPPAE) protein (human/mouse chimera, UniProt Q8BWG9 1-304 (mouse entry)); test: FACS, 293EBNA; design: concentration or dose not given beside the values
T4 construct: also called Ch
T4 sequence (Q8BWG9 other isoform, or with tags, fused parts or gaps): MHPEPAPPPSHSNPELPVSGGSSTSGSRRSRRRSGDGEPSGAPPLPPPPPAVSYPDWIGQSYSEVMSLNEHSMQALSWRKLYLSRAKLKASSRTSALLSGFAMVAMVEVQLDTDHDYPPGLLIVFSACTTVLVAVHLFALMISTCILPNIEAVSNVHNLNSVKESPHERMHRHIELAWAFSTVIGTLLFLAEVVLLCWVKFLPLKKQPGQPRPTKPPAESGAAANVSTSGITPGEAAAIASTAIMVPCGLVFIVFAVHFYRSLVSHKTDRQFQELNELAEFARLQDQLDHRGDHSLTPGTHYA
Description: as §1, §2

[5] = target: T5, mOrai1-hOrai1 ECL2 (…) protein (human/mouse chimera, UniProt Q8BWG9 1-304 (mouse entry)); test: FACS, 293EBNA; design: concentration or dose not given beside the values; remark: listed apart in the source
T5 construct: also called Ch
Description: as §1, §2
T5 sequence (Q8BWG9 other isoform, or with tags, fused parts or gaps): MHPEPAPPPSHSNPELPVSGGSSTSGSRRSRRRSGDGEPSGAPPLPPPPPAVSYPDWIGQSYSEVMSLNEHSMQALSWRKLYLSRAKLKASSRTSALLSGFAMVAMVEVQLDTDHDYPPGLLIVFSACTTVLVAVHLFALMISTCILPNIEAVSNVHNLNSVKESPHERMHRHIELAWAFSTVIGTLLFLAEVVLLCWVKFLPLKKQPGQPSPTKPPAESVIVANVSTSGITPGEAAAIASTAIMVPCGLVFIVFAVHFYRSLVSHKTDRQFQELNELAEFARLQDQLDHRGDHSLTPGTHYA

[6] = target: T6, mOrai1-hOrai1 ECL2 (…) protein (human/mouse chimera, UniProt Q8BWG9 1-304 (mouse entry)); test: FACS, 293EBNA; design: concentration or dose not given beside the values; remark: listed apart in the source
T6 construct: also called Ch
Description: as §1, §2
T6 sequence (Q8BWG9 other isoform, or with tags, fused parts or gaps): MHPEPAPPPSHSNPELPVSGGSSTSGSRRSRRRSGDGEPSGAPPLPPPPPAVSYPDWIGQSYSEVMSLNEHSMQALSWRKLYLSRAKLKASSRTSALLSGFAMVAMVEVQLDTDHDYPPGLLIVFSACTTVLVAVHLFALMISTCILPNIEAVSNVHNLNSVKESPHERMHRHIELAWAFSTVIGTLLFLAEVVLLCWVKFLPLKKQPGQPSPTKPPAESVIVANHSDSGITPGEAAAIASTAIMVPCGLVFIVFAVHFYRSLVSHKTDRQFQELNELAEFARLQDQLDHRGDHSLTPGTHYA

[7] = target: T7, mOrai1-hOrai1 ECL2 (…) protein (human/mouse chimera, UniProt Q8BWG9 1-304 (mouse entry)); test: FACS, 293EBNA; design: concentration or dose not given beside the values; remark: listed apart in the source
T7 construct: also called Ch
Description: as §1, §2
T7 sequence (Q8BWG9 other isoform, or with tags, fused parts or gaps): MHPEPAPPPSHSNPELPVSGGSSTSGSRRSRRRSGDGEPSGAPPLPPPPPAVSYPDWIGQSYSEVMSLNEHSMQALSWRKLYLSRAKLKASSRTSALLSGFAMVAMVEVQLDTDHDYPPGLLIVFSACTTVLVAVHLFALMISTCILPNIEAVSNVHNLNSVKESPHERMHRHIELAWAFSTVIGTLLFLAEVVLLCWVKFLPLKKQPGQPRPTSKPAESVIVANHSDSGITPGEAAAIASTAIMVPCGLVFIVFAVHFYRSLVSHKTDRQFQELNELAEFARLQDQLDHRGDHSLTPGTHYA

[8] = target: T8, mOrai1-hOrai1 ECL2 (AESVIV) protein (human/mouse chimera, UniProt Q8BWG9 1-304 (mouse entry)); test: FACS, 293EBNA; design: concentration or dose not given beside the values
T8 construct: also called Ch
T8 sequence (Q8BWG9 other isoform, or with tags, fused parts or gaps): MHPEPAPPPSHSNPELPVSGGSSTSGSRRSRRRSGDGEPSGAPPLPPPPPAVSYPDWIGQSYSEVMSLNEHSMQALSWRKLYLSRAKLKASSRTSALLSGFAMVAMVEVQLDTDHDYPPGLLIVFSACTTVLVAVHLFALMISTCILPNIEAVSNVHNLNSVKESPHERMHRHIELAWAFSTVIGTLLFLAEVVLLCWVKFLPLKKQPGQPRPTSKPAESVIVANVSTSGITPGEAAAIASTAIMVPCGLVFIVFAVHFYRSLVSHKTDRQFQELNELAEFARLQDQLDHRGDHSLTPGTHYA
Description: as §1, §2

human Orai1 = human Orai1 (human, UniProt Q96D31 1-301); test: cell-based or functional assay
Sequence of human Orai1 (Q96D31 whole entry): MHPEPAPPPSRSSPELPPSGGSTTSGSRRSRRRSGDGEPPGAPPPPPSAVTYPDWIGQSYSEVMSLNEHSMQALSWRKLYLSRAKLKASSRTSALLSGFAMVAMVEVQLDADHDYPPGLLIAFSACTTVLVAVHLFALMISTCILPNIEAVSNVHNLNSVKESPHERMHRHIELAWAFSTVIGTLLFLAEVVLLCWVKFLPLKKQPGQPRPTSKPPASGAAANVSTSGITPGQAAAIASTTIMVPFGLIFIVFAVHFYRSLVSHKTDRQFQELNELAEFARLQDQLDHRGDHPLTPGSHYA

[9] = target: T9, mOrai1-hOrai1 ECL2 chimeric protein (human/mouse chimera, UniProt Q8BWG9 1-304 (mouse entry)); test: FACS, 293EBNA, RFI-POC grade; design: concentration or dose not given beside the values
T9 construct: mouse Orai1 with human ECL2; also called Ch
T9 sequence (Q8BWG9 other isoform, or with tags, fused parts or gaps mutant): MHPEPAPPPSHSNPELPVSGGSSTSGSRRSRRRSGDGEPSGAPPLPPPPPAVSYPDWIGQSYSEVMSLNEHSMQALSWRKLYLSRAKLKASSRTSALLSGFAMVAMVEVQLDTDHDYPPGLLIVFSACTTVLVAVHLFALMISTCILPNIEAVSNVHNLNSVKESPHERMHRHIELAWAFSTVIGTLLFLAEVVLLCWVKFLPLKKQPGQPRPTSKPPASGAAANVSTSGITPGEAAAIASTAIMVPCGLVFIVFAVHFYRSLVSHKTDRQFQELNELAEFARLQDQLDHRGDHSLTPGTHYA
Description: as §1, §2

[10] = target: T10, mOrai1-hOrai1 ECL2 (VIV) protein (human/mouse chimera, UniProt Q8BWG9 1-304 (mouse entry)); test: FACS, 293EBNA, RFI-POC grade; design: concentration or dose not given beside the values
T10 construct: also called Ch
T10 sequence (Q8BWG9 other isoform, or with tags, fused parts or gaps): as the sequence (Q8BWG9 other isoform, or with tags, fused parts or gaps mutant) above, with G221V, A222I, A223V counted along it
Description: as §1, §2

[11] = target: T11, mOrai1-hOrai1 ECL2 (HSD) protein (human/mouse chimera, UniProt Q8BWG9 1-304 (mouse entry)); test: FACS, 293EBNA, RFI-POC grade; design: concentration or dose not given beside the values
T11 construct: also called Ch
T11 sequence (Q8BWG9 other isoform, or with tags, fused parts or gaps): as the sequence (Q8BWG9 other isoform, or with tags, fused parts or gaps mutant) above, with V226H, T228D counted along it
Description: as §1, §2

human Orai2 = target: T12, human Orai2 (human, UniProt Q96SN7 1-254); test: FACS, 293EBNA transfectants
T12 construct: also called hOrai2
T12 sequence (Q96SN7 whole entry): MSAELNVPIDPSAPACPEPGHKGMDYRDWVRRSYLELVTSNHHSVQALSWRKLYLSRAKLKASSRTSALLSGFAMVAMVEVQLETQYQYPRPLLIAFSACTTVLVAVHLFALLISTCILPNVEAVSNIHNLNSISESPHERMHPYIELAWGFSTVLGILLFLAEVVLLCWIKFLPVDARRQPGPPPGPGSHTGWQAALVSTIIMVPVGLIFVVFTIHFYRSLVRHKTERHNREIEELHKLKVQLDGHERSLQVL
Method: (§3) Purified monoclonal antibodies from hybridoma supernantants of the subclones derived from initial hits were assessed for binding to human Orai1, Orai2 and Orai3 expressed on HEK-293-EBNA cells along with vector transfected control parental cells. Cells stained with or without primary mAbs were counter-stained with a secondary phycoerythrin-labeled goat (“Gt”) anti-human (“Hu”) IgG F(ab′)₂ antibody fragment and visualized using FACS.
(§4) FACS binding analysis. Transfected 293EBNA cells transiently expressed hOrai1, human Orai2, or human Orai3 (results of binding comparison in FIG. 11A-B), or hOrai1(S218G) (results of binding comparison in FIG. 12A-B); or hOrai1 and hSTIM1; mOrai1 and mouse STIM1; or rat Orai1 and rat STIM1 (results of binding comparison in FIG. 13). The transfected cells were harvested at 48 hours post-transfection. Cells transfected with pcDNA3.1 were used as negative controls. Cells were washed once with ice-cold 1×PBS, resuspended in ice-cold FACS buffer (1×D-PBS+2% goat serum), and 2×10⁵ cells in […] were stained per antibody combination. All antibody incubation steps were performed on ice for 1 hour. […] Next, the unlabelled antibody was detected using goat F(ab′)₂ anti-mouse or anti-human IgG-phycoerythrin (IgG-PE), followed by a wash with 200 μL of ice-cold FACS buffer before flow cytometry analysis. Unstained cells and cells stained with detecting antibodies were used as negative controls. The values of relative level of fluorescence were calculated using FCS Express (De Novo Software) and mean values were calculated using log-transformed data (geometric mean). Purified mAbs were assessed by FACS assay for their ability to specifically bind human Orai1, Orai2 and Orai3 proteins expressed on HEK-293 cells.

human Orai3 = human Orai3 (human, UniProt Q9BRQ5 1-295); test: FACS, 293EBNA transfectants
Method: as §3, §4

mouse Orai1 = target: T13, mouse Orai1 (mouse, UniProt Q8BWG9 1-304); test: FACS, 293EBNA transfectants with STIM1, thapsigargin
T13 construct: co-expressed with mouse STIM1; also called mOrai1
T13 sequence (Q8BWG9 whole entry): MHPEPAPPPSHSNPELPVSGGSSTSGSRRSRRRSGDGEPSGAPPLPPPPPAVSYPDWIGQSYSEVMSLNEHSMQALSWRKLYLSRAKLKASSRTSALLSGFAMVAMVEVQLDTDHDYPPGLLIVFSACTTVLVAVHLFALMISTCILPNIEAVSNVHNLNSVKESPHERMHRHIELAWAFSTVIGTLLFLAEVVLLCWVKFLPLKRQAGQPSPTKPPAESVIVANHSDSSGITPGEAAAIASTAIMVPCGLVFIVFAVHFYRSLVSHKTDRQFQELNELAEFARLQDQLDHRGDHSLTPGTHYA
Method: (§5) FIG. 13A-B illustrates the results of FACS analysis showing binding to human Orai1 expressed on the surface of HEK-293-EBNA cells that were treated with 2 μM Thapsigargin. HEK-293-EBNA cells were transiently transfected with human Orai1 and human STIM1, mouse Orai1 and mouse STIM1, rat Orai1 and rat STIM1 and control empty vector. Transfected cells were stained first with recombinant monoclonal antibodies then counter-stained with a secondary phycoerythrin-labeled Gt anti-Hu IgG F(ab′)₂ or Gt anti-Mu IgG F(ab′)₂ antibody fragment, as appropriate, and visualized using FACS.
as §4

rat Orai1 = target: T14, rat Orai1 (rat, UniProt Q5M848 1-304); test: as above
T14 construct: co-expressed with rat STIM1; also called rOrai1
T14 sequence (Q5M848 whole entry): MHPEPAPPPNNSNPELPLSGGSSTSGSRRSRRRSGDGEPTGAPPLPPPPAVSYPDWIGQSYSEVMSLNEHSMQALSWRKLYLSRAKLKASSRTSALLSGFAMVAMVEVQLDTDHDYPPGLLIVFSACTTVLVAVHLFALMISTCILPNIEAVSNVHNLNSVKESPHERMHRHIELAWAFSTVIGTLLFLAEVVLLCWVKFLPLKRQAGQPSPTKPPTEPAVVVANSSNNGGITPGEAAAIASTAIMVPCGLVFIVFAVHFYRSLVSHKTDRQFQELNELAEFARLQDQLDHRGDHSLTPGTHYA
Method: as §5, §4

T1 sequence (Q96D31 other isoform, or with tags, fused parts or gaps mutant): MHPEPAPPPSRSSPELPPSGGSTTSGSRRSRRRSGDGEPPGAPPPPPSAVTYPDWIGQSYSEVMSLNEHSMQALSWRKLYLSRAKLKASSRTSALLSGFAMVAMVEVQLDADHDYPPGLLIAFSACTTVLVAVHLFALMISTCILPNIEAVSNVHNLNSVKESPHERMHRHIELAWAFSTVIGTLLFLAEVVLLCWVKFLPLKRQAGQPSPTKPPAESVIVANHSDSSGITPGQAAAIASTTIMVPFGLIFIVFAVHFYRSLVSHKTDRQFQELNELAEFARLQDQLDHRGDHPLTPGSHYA

| Binder | POC (percent of control, FACS Geo Mean relative to binding to Ch. 1) [1] | POC (percent of control, FACS Geo Mean relative to binding to Ch. 1) [2] | POC (percent of control, FACS Geo Mean relative to binding to Ch. 1) [3] | POC (percent of control, FACS Geo Mean relative to binding to Ch. 1) [4] | POC (percent of control, FACS Geo Mean relative to binding to Ch. 1) [5] | POC (percent of control, FACS Geo Mean relative to binding to Ch. 1) [6] | POC (percent of control, FACS Geo Mean relative to binding to Ch. 1) [7] | POC (percent of control, FACS Geo Mean relative to binding to Ch. 1) [8] | IC50 IFN-γ, whole blood Donor B (human Orai1) | IC50 IL-2, whole blood Donor A (human Orai1) | IC50 IL-2, whole blood Donor B (human Orai1) | POC (percent of control, FACS Geo Mean relative to binding to Ch. 1) [9] | POC (percent of control, FACS Geo Mean relative to binding to Ch. 1) [10] | POC (percent of control, FACS Geo Mean relative to binding to Ch. 1) [11] | binding result (human Orai2) | binding result (human Orai3) | binding result (mouse Orai1) | binding result (rat Orai1) | IC50 IFN-γ, whole blood Donor A (human Orai1) |
| --- | --- | --- | --- | --- | --- | --- | --- | --- | --- | --- | --- | --- | --- | --- | --- | --- | --- | --- | --- |
| mAb 5F7.1 (antibody, human IgG2, lambda, fully human IgG2 lambda, Campaign 2) heavy: QVQLVQSGAEVKKPGASVKVPCKASGYTFTDYYINWVRQAPGQGLEWMGWINPNNGGTNYAQKFQGRVTMTRDTSISTAYMELRRLRSDDTAVYYCARERGGYEDWFDPWGQGTLVTVSSASTKGPSVFPLAPCSRSTSESTAALGCLVKDYFPEPVTVSWNSGALTSGVHTFPAVLQSSGLYSLSSVVTVPSSNFGTQTYTCNVDHKPSNTKVDKTVERKCCVECPPCPAPPVAGPSVFLFPPKPKDTLMISRTPEVTCVVVDVSHEDPEVQFNWYVDGVEVHNAKTKPREEQFNSTFRVVSVLTVVHQDWLNGKEYKCKVSNKGLPAPIEKTISKTKGQPREPQVYTLPPSREEMTKNQVSLTCLVKGFYPSDIAVEWESNGQPENNYKTTPPMLDSDGSFFLYSKLTVDKSRWQQGNVFSCSVMHEALHNHYTQKSLSLSPGK light: QSVLTQPPSVSGAPGQRVTISCTGSSSNIGAGFDVHWYQQLPVTAPKLLIYGNRNRPSGVPARFSGSKSGTSASLAITGLQAEDEAVYYCQSYDSSLTVFGGGTKLTVLGQPKANPTVTLFPPSSEELQANKATLVCLISDFYPGAVTVAWKADGSPVKAGVETTKPSKQSNNKYAASSYLSLTPEQWKSHRSYSCQVTHEGSTVEKTVAPTECS | < 1% | < 1% | < 1% | < 1% | < 1% | < 1% | < 1% | < 1% | 11.8 nM | 4.05 nM | 3.49 nM | 40 to 100% | 40 to 100% | 40 to 100% | no binding (tested: 1 µg) | no binding (tested: 1 µg) | no binding (tested: 1 µg) | no binding (tested: 1 µg) |  |
| mAb 5A4.2 (antibody, human IgG2, lambda, V domains shown, fully human IgG2 lambda, Campaign 2) VH: QVQLVQSGAEVKKPGASVKVSCKASGYTFTDYYMNWVRQAPGQGLEWMGWINPNSGGTKYAQKFQGRVTMTRDTSIRTAYMELSRLRSDDTAVYYCSREYGGNSDWFDPWGQGTLVTVSS VL: QSVLTQPPSVSGAPGQRVTISCTGSSSNIGAGYDVHWYQQLPGTAPKLLIYGNSNRPSGVPDRFSGSKSGTSASLAITGLQAEDEADYYCQSYDNRLSDSVVIGGGTKLTVQG | < 1% | < 1% | < 1% | < 1% | < 1% | < 1% | < 1% | < 1% | 2.76 nM | 1.88 nM | 1.21 nM | 40 to 100% | 40 to 100% | 40 to 100% | no binding (tested: 1 µg) | no binding (tested: 1 µg) | no binding (tested: 1 µg) | no binding (tested: 1 µg) | 4.83 nM |
| mAb 5C1.1 (antibody, human IgG2, lambda, V domains shown, fully human IgG2 lambda, Campaign 2) VH: QVQLVQSGAEVKKPGASVKVSCKASGYTFTDYYMNWVRQAPGQGLEWMGWINPNSGGTKYAQKFQGRVTMTRDTSIRTAYMELSRLRSDDTAVYYCAREYGGNSDWFDPWGQGTLVTVSS VL: QSVLTQPPSVSGAPGQRVTISCTGSSSNIGAGYDVHWYQQLPGTAPKLLIYGNSNRPSGVPDRFSGSKSGTSASLAITGLQAEDEADYYCQSYDNRLSDSVVIGGGTKLAVQG | < 1% | < 1% | < 1% | < 1% | < 1% | < 1% | < 1% | < 1% | 2.41 nM | 2.18 nM | 1.24 nM | 40 to 100% | 40 to 100% | 40 to 100% | no binding (tested: 1 µg) | no binding (tested: 1 µg) | no binding (tested: 1 µg) | no binding (tested: 1 µg) | 5.42 nM |
| mAb 5F2.1 (antibody, human IgG2, lambda, V domains shown, fully human IgG2 lambda, Campaign 2) VH: QVQLVQSGAEVKKPGASVKVSCKASGYTFTDYYMNWVRQAPGQGLEWMGWINPNSGGTHYAQKFQGRVTMTRDTSISTAYMELSRLRSDDTAVYYCAREYGGYSDWFDPWGQGTLVTVSS VL: QSVLTQPPSVSGAPGQRVTISCTGSRSNIGAGYDVHWYQQLPRTAPKLLIYDNSNRPSGVPDRFSGSKSGSSASLAITGLQAEDEADYYCQSYDNSLSDSVLIGGGTKLTVLG | < 1% | < 1% | < 1% | < 1% | < 1% | < 1% | < 1% | < 1% |  | 4.83 nM | 3.79 nM | 40 to 100% | 40 to 100% | 40 to 100% | no binding (tested: 1 µg) | no binding (tested: 1 µg) | no binding (tested: 1 µg) | no binding (tested: 1 µg) |  |
